Experimental data reported in the supplement of paper PMC10567573.
± gives the standard deviation.

Assay: protein stability index of a GFP-peptide fusion (GPS, HEK-293T) (PSI 1-6); higher = more stable
[1] = treatment: DMSO, c terminus: a fixed tail appended
[2] = treatment: MLN4924 1 uM, 8 h, c terminus: a fixed tail appended
[3] = treatment: DMSO, c terminus: native
[4] = treatment: MLN4924 1 uM, 8 h, c terminus: native
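Note: 24-mer peptide tiles fused after GFP, lentivirally expressed, FACS-sorted into six equal bins by GFP/DsRed ratio, decoded by Illumina sequencing, PSI is the read-weighted mean bin number.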

Sequence	protein stability index [1]	protein stability index [2]	protein stability index [3]	protein stability index [4]
HNTTEAPGPHSAKQDSYEQGDSSQ [ZC2HC1C]	5.45 ± 0.29	5.46 ± 0.32	–	–
HPGFKDNVYRKRRKYFADLAMNYK [TPH1]	2.61 ± 0.23	3.01 ± 0.48	–	–
HRLMTDARRRVCHTEDFQKEEGTV [CPXM2]	4.76 ± 0.26	4.8 ± 0.24	–	–
HRRDGKWQIVHFHRSGAPSVLPH [CAMK2A]	–	–	3.2 ± 0.21	3.34 ± 0.24
HSDMAAIVKAMASPESGLEVRDRM [DVL3]	3.81 ± 0.23	3.81 ± 0.03	–	–
HSRKTVLIKTIETRNGEVVTESQK [PRPH]	4.71 ± 0.27	4.8 ± 0.32	–	–
HYFPVMKKCCIPETRRRMEMAFNT [NLN]	2.35 ± 0.43	1.84 ± 0.27	–	–
IAFDGVVGSGGRRDSTARRPRPQG [RTN2]	4.29 ± 0.17	4.26 ± 0.22	–	–
IALDLTPVIEELTNAGFLQTESEL [FAN1]	2.46 ± 0.26	2.57 ± 0.37	–	–
IDFSPYLEPLGAPQAPAPATATDT [CEBPB]	4.42 ± 0.31	4.35 ± 0.37	–	–
IDNSSEIEDEDQILENSSQKENVF [FAN1]	5.39 ± 0.28	5.2 ± 0.56	–	–
IEREVNILREIRHPNIITLHDIFE [DAPK3]	2.69 ± 0.17	2.71 ± 0.42	–	–
IESLNEELAYMKKNHEEEMKEFSN [KRT13]	4.88 ± 0.38	5.06 ± 0.3	–	–
IFEGNSEKEIPVLNELPVPMVARY [CPXM2]	3.55 ± 0.16	3.37 ± 0.33	–	–
IFRNLCQMQEDNSSFSLLLDLLSE [INTS3]	2.61 ± 0.28	2.51 ± 0.37	–	–
IGLTKAGMEGDWSWVDDTPFNKVQ [CD207]	2.97 ± 0.37	3.04 ± 0.46	–	–
ILLLDGAAWLTLWVFGTSFLPFLL [FADS1]	2.91 ± 0.062	3.17 ± 0.46	–	–
IMTQLRQEGWIHHLARHAVACFLT [CRY1]	3.02 ± 0.38	2.84 ± 0.61	–	–
INDNAPTFQSSVLRVGIPENAPIG [PCDHGC5]	3.99 ± 0.066	4.18 ± 0.19	–	–
INLPVEEFNELLSKYQLSEAQLSL [NFE2L1]	2.47 ± 0.44	2.51 ± 0.21	–	–
IPAVSISYVVYENLKITLGVQSR [SLC25A25]	–	–	3.19 ± 0.32	3.18 ± 0.36
IPVLMALSWFILHARYRVIHFIAV [SLC35F2]	3.09 ± 0.43	3.25 ± 0.093	–	–

Sequence	protein stability index [1]	protein stability index [2]	protein stability index [3]	protein stability index [4]
IPYWVAYYLALLLSLLVMVISPVI [NSDHL]	2.23 ± 0.31	2.28 ± 0.38	–	–
IQHRRTHTDSKYEHAIAEAQKNMY [ZNF396]	3.78 ± 0.27	3.96 ± 0.21	–	–
IQMVNESLGYVRSQFLKLKTSVEK [CD207]	3.34 ± 0.21	3.29 ± 0.13	–	–
IRLVCSRGNRLKTTSWGLLSLGAL [SCNN1D]	3.2 ± 0.45	3.07 ± 0.54	–	–
ISFDRYYKIVKPLWTSFIQSVSYS [P2RY14]	3.63 ± 0.89	2.08 ± 0.7	–	–
ISGALLQIKTLLALSCHEQEMVVS [SLC2A12]	2.91 ± 0.5	2.42 ± 0.48	–	–
ISHQGDYAVLAAEPELQVGIDIMK [AASDHPPT]	3.42 ± 0.21	3.52 ± 0.3	–	–
ISNGDFESYTKMCDPGMTAFEPEA [CAMK2A]	4.48 ± 0.18	4.66 ± 0.25	–	–
ISVNGDVITIKSESTFKNTEISFI [FABP4]	2.75 ± 1.1	2.11 ± 0.16	–	–
IVGWRCRVGQWVRMENVTVLGEDV [GMPPB]	2.39 ± 0.61	2.15 ± 0.18	–	–
IVHVEKEEVPEGMEEAAVASVVLP [BCL2L13]	5.11 ± 0.16	5.07 ± 0.19	–	–
IVMCVQIKCFHEIITIGYNVYHSY [CDS2]	3.32 ± 0.42	3.36 ± 0.66	–	–
IVSILPYFITLGTDLAQQQGGGNG [KCNA4]	2.92 ± 0.36	2.54 ± 0.23	–	–
IVVATLPIPVVFVLRHFHLLSDGS [SLC6A17]	2.92 ± 0.56	3.21 ± 0.24	–	–
IVVSLQSKLASMSNDFKSVLEVRT [STX5]	2.7 ± 0.65	2.64 ± 0.72	–	–
IWAQGWVPAAGGPAPKRGYSSEMK [AUH]	–	2.9 ± 0.29	–	–
KAGFTASPFTNLLNGSSQPTTRNY [CDC14A]	3.38 ± 0.19	3.39 ± 0.18	–	–
KAKRRNQEMQQKLVELSAENEKLH [CEBPD]	4.97 ± 0.67	4.8 ± 0.097	–	–
KALQMLLSQPVTYQAFRECTLETT [BCL2L13]	3.24 ± 0.35	2.79 ± 0.42	–	–
KASLWQFLSSEKQICGTHRQTKKM [TRIM43]	2.63 ± 0.27	2.71 ± 0.24	–	–
KATNVVMNYSEIESKVREATNDDP [CLINT1]	5.35 ± 0.27	5.34 ± 0.15	–	–
KAVKDLVVLLFETALLSSGFSLED [HSP90AB1]	2.92 ± 0.17	2.88 ± 0.16	–	–

Sequence	protein stability index [1]	protein stability index [2]	protein stability index [3]	protein stability index [4]
KDVRRHLVVHTGCKDFLCQFCAQR [PLAGL1]	3.44 ± 0.08	3.55 ± 0.21	–	–
KDYYPINESLASLPLRVSFCPLSL [CLPTM1]	2.16 ± 0.28	2.15 ± 0.096	–	–
KERDLRDVGDWRKNIEEKSGMEGR [TNNI2]	5.07 ± 0.25	5.15 ± 0.3	–	–
KERILLVTDKTLLICKYDFIMLSC [TPRG1]	3.06 ± 0.42	2.61 ± 0.31	–	–
KERQKKDNHNLIERRRRFNINDRI [TFE3]	3.95 ± 0.36	4.08 ± 0.14	–	–
KFIKPWESPDEMELDELLKEISRK [PTPRD]	2.32 ± 0.41	2.76 ± 0.38	–	–
KGAILTTMLATRNFSAAKSLLNKK [CAMK2B]	2.91 ± 0.18	3.04 ± 0.24	–	–
KHSSTSSRIAKGGVDHTKMSLHGA [BTBD10]	3.66 ± 0.19	3.79 ± 0.19	–	–
KHWVYVKRGGNCPAPAPLVPQDPD [ZBTB22]	3.32 ± 0.48	3.56 ± 0.43	–	–
KIASLLGLLSKTAGFSPDCIMDDA [INTS4]	2.57 ± 0.58	2.19 ± 0.55	–	–
KITKVMDVRLDREHRVAGIFPRLS [CLPTM1]	2.69 ± 0.17	2.7 ± 0.36	–	–
KKAEQKKKEKIIEDKTFGLKNKKG [ZC3H15]	4.8 ± 0.31	4.92 ± 0.1	–	–
KKAPQPAKPRLAERMTTREKKVLE [HDAC6]	4.58 ± 0.18	4.81 ± 0.39	–	–
KKIYEAKRFTDAGFEHYDLFFIDG [CDC14A]	2.36 ± 0.29	2.34 ± 0.23	–	–
KKLHEEELRDLQVSVESQQVQQVE [PRPH]	4.13 ± 0.62	4.2 ± 0.13	–	–
KKPPVTFAEKGELRKSIFSESRKP [TRIM29]	4.13 ± 0.23	4.19 ± 0.19	–	–
KKRMRYFDPLRNEYFFDRNRPSFD [KCNA1]	2.47 ± 0.44	2.83 ± 0.19	–	–
KKTGKSSTTALGDKQRKANESKGT [ELOA2]	5.26 ± 0.36	5.22 ± 0.17	–	–
KLEERFMTLAANHELMLRFKDEYK [CCDC89]	2.99 ± 0.28	2.99 ± 0.43	–	–
KLPRKVLQHVSEPQAHQESTRGAA [SPACA9]	4.59 ± 0.13	4.76 ± 0.17	–	–
KLWDLRTTKCVRQYEGHVNEYAYL [DCAF4]	2.38 ± 0.21	2.27 ± 0.22	–	–
